Results published in the DeepSol protein solubility set.

Assay: soluble on expression in E. coli; label from the status in PepcDB or PDB records

| Sequence | soluble on expression in E. coli |
| --- | --- |
| MTSKSVATPALDPAFQQLTAFASVHNFILVKGQADKQDLAGYNIPKLKELIVAYHNLYRSKHGAPPLVADPVMDVAAKRWADEMAKSGWISHEKPRKYGENVAMFCQSGCWPLPQTLAQAMVHLFYIEGIGYDYSSFKPELLKENGHFTQIVWKSSRKIGVGISIGKSSQPPYIPTMFHCVKFDPPGNVLAQQYYLSNVQRPTA | not soluble |
| MGKLEDICDQYLSRKKEQDKVIEAVERCLKKGYDYEKLKDRVQEAISDPQKARKVISAVCDHYPQLRKRTRTDRDGEDRDRKRDRTDDRRKPDASVPAAVAEPQKPAEQSIEERLRAKEMMYKAQQEIEETKRKMAIAAGTLQPKAALAQAKTQMVAPGGKSLSLGRDEATMLMTHSMDKKSRMEELKARLARTTVMAKIDAMVGNSGAGVMAPLPEAVQQAEKKVQQQITKESKEPEKLIEYLDPRIQARTADRRRRGFNFHEKGEFEKLANKQRAMAKLERLQNEVSSAAQSTGISSAVKLAMVTPTGTAKMENGVPDIEWWDMLVLDKVNYDEIPAENDMERYSQTVSELVEHPISMRAPTEPLTQQYLKVYLTTKEKKKIRRQNRKEVLKEKTEKIRLGLEKAPEPKVKISNLMRVLGNEAIQDPTKMEAQVRKQMAERLKKHETLNAERKLTEDQKRAKKTKKLSEDTSTAVNVSVYRVKSLAHPSKKFKVETNAKQLQMSGAIMMHKAQNVIVVEGGPKQQKFYKNLMINRIKWSDEIIGQKKDAEKDAPGERNLCEMIWEGQVKRRNFRDFTVHTATLEKQAREFFEKHGVAQYWDLCYSTTVLLEGQDILPTA | not soluble |
| MGSDKIHHHHHHMLFNTRPKEDRKDLYDREKEIEMIKDSIARGEWIAVLGMRRIGKTSVVNVAVKEIGAIKVSINLMRIHDSRKKQYPKHVLISLLIEEINEAIKNYTILGKVAKLLSNILGVEEIQTNKVRAKLTKIRGTDITYIIREMDSIARDNKKQLVIILDEAQELAKVNGLDFPSIFHDVYDNCKNTVIIFTGSMVKLIEKTLKNIEYTEPFFGRYIRKITLGRFLPEQSREFLEKGFEEEGIKVDESVIDEAVKRLDGIPGWLTLFGSEYTFSAKMGTKPRIDEIIEKAINEVRNEARNFIFSTQSPLRYSAVILALDRLGGKGELHEIVKVSSTILNENIPEPRVYEILNRLVEFDFIERREDNEYYLHQDEPNRKGLILAAKDSPASYSI | not soluble |
| MGSDKIHHHHHHMKQLVGIPESMLIPLIARAKEYENEKPIIKDALSKKIFDGLDDMYKNVTCDDMSQIGISIRTVIIDCVTKRLIKDNKDLIVVNIGCGLDTRFQRFNKEKISWIDLDVPESIEIRKTFFKESNSYKMISKSMLDYSWIDDVKNYKFFNSKSDILFIIEGVLMYFDESVMTQLLDTIIKKMGDHNLTFAIEFCSKTIANNTKRHQSVSKLSSQPVFKYGYNDLKKLNEILPNTIRVIHEYNYFDYYKNRWGLFGYCRFIPYLKKRLNNKIVLMKYKVPKRQRH | not soluble |
| MSSQKQLEGMIFDVQSFSVHDGPGCRTTVFLNGCPLSCKWCANPESWTVRPHMMFSELSCQYENGCTVCHGKCKNGALSFNLDNKPVIDWNICKDCESFECVNSCYYNAFKLCAKPYTVDELVQVIKRDSNNWRSNGGVTFSGGEPLLQHEFLHEVLLKCHEVNIHTAIETSACVSNEVFNKIFNDIDFAFIDIKHMDREKHKEQTGVYNDLILENISNLANSDWNGRLVLRVPVISGFNDSDENISDIISFMHKNNLVEINLLPFHRLGESKWTQLGKEYEYSDKGDVDEGHLEELQDIFLDNGIACYVGHETAF | not soluble |
| MTQANLSETLFKPRFKHPETSTLVRRFNHGAQPPVQSALDGKTIPHWYRMINRLMWIWRGIDPREILDVQARIVMSDAERTDDDLYDTVIGYRGGNWIYEWATQAMVWQQKACAEDDPQLSGRHWLHAATLYNIAAYPHLKGDDLAEQAQALSNRAYEEAAQRLPGTMRQMEFTVPGGAPITGFLHMPKGDGPFPTVLMCGGLDAMQTDYYSLYERYFAPRGIAMLTIDMPSVGFSSKWKLTQDSSLLHQHVLKALPNVPWVDHTRVAAFGFRFGANVAVRLAYLESPRLKAVACLGPVVHTLLSDFKCQQQVPEMYLDVLASRLGMHDASDEALRVELNRYSLKVQGLLGRRCPTPMLSGYWKNDPFSPEEDSRLITSSSADGKLLEIPFNPVYRNFDKGLQEITDWIEKRLC | soluble |
| MIPAEIAKTAFKSLLPVLERGVVAADRAFSGYIQPRRLRGKLLLQPYVGWGTPREVELTGRVLLPRALAPARKGDPRWRNFHNIVRRLFSREVGGVRVAGTLSDQTVSAVSDSDGYFTLHFTFPRPIAAGWHEVRLQMEDRQEDAARARVQVVGKARFGIISDLDDTVIQSDVTSLPRMLMTSLTGNARTRSPFPGVGALYRALTREGEARNPIFYVSSSPWNFFDLLWQFLDYRRIPLGPLFLRNWGMDLLGGHGGYKHGVIERIFHRYPNLNFVLVGDSGEKDPEIYAEVVRRFPGRVLAVYIRDVTGAERDEGVLRLREEIRKAGADLVLASDSLSAAGHALALGLITPGEYRSVLTSVARTYETLEHHHHHH | soluble |
| MKTFGLLGGLAYPSTAEYYLKINRQVHATLGKHHSAPLWIHSFDFEPIAQAQASGSWTILEEKLLQAALELERLGCQGLAIASNTMHLLAPALEGALSIPLVHIADSVGEESSLKGYKKLALLGTLFTMEKDFYASRLQERFDLEVITPAKEERNLVHECIYRELVNNIFTEDSRRDFIQIIHGLKERGAEAVILGCTEIPLLLEGASSPLPLLDTMELHVGSIVQSILEI | not soluble |
| MSDDESIFVPDENSAQVSAETTVKCYRTDSASSQKVINNLEKFVLNQSLDKSYKKIASDGIASSKRTLESLLARNGGHQNLLNEEVNKLNNKNYTLDADGRVCLVKNSSNDTSRHQELILLQKDTHELRCLREYLMLALEAIMHNHRQMMVKHVQNVRERPRQVSQAAIDNAIVSSAFGLFIEAFYSFLFQEKANTRIIDEFAQMTLFVDQSIAREEIRSENRRKLKKTIEIETFLMRMMLEMEDIREANVKDLVSLWRSHQRSAKTQPTNNNAAGDSTN | not soluble |
| MGSDKIHHHHHHMDSSRSDPMRLMIFGAGYSGKAIGQHFIQQGIPVSGTTRSPAKAKALSDLGIEPLVFDGQRLSDEIIQAMACATHVVQSIAPGSDGDPLLRLTQGALKTWMPKVQWLAYLSTVGVYGDHQGAWVDEDTVCKPVSVRSKERVEAEQAWGRAALAAGVPLSTLRLSGIYGPGRNGLVNMAEGTARRLVKKDQVFNRIRVEDIAAATWFLAGRNEQGIFNITDHEPAPPQDVVAEAARLMEVEPPPEQAFETAELSPMARSFYGENKRVMNAKVRALGFAFAYPDYRVSLSQLWSSGRWRG | not soluble |
| SLSESFPLLEKYRIGKVIGDGNFAVVKECVDRYTGKEFALKIIDKAKCCGKEHLIENEVSILRRVKHPNIIMLVEEMETATDLFLVMELVKGGDLFDAITSSTKYTERDGSAMVYNLANALRYLHSLSIVHRDIKPENLLVCEYPDGTKSLKLGDFGLATVVEGPLYTVCGTPTYVAPEIIAETGYGLKVDVWAAGVITYILLCGFPPFRSENNLQEDLFDQILAGKLEFPAPYWDNITDSAKELISQMLQVNVEARCTAGEILSHPWVSDDASQENNMQAEVTGKLKQHFNNALPKQNSTTTGVSVIMNTALDK | soluble |
| MDREALLQAVKEARELAKPRNFTQSFEFIATLKEIDMRKPENRIKTEVVLPHGRGKEAKIAVIGTGDLAKQAEELGLTVIRKEEIEELGKNKRKLRKIAKAHDFFIAQADLMPLIGRYMGVILGPRGKMPKPVPANANIKPLVERLKKTVVINTRDKPYFQVLVGNEKMTDEQIVDNIEAVLNVVAKKYEKGLYHIKDAYVKLTMGPAVKVKKEKAKKK | soluble |
| MTDYGDADKYVNDESIEMAWAIKAGERSEVHMNLIMRCDTRVLRLNKHQDAILAAFRSSFPDLNVEEVTTSLLKDGGAKETWREFCEQFKDIVDDYSMGTLMRIHASKAYSPENTVVVPRIIYLAIEMARNVEGVNEKNKEAYTAHRNSLASL | soluble |
